{"source": "paper PMC3804942", "about": "(The Journal of Experimental Medicine, 2013)", "binders": {"B1": {"name": "Human RAGE V-C1 domain (residues 23-237) (domain or fragment)", "chain": "AQNITARIGEPLVLKCKGAPKKPPQRLEWKLNTGRTEAWKVLSPQGGGPWDSVARVLPNGSLFLPAVGIQDEGIFRCQAMNRNGKETKSNYRVRVYQIPGKPEIVDSASELTAGVPNKVGTCVSEGSYPAGTLSWHLDGKPLVPNEKGVSVKEQTRRHPETGLFTLQSELMVTPARGGDPRPTFSCSFSPGLPRHRALRTAPIQPRVWEPVPLEE"}, "B2": {"name": "ODN 752/753 vaccinia repeat 22mer (dsDNA)", "DNA 1": "CCATGACTGTAGGAAACTCTAG", "DNA 2": "GCTAGAGTTTCCTACAGTCATG"}, "B3": {"name": "ODN 981/982 CpG 22mer (dsDNA)", "DNA 1": "CTGCAACGATGCTACGAACGTG", "DNA 2": "CACGTTCGTAGCATCGTTGCAG"}, "B4": {"name": "ODN 787/788 20mer (dsDNA)", "DNA 1": "CCATCAAAGAGAGAAAGAGC", "DNA 2": "GCTCTTTCTCTCTTTGATGG"}}, "key": {"crystal structure": {"biological_target": "the molecule itself", "assay": "crystal structure"}, "[1]": {"biological_target": "T1, RAGE extracellular domain V-C1-C2 (His) (human, UniProt Q15109 23-342)", "assay": "AlphaScreen"}, "RAGE V domain (His)": {"biological_target": "RAGE V domain (His) (human, UniProt Q15109 23-121)", "assay": "AlphaScreen"}, "[2]": {"biological_target": "T1, RAGE extracellular domain V-C1-C2 (His)", "assay": "AlphaScreen", "remark": "listed apart in the source"}, "[3]": {"biological_target": "T2, RAGE V-C1 (crystallography) (human, UniProt Q15109 23-237)", "assay": "X-ray crystallography"}, "[4]": {"biological_target": "T2, RAGE V-C1 (crystallography)", "assay": "X-ray crystallography", "remark": "listed apart in the source"}, "RAGE mutant 0": {"biological_target": "RAGE mutant 0 (UniProt Q15109 23-237, K110A;R178A;R179A)", "assay": "fluorescence polarization"}}, "note": "Like-named read-outs stand apart in the source and are kept apart here.", "data": [{"binder": "B1", "values": [{"measurement": "binding result", "setting": "crystal structure", "value": "binds"}]}, {"binder": "GGGGACGACGTCGTGGGGGGG (ssDNA, phosphorothioate at positions marked * (G*G*GGACGACGTCGTGG*G*G*G*G*G))", "note": "[ODN 2336 (CpG-A)]", "values": [{"measurement": "binding result", "setting": "[1]", "value": "binds"}]}, {"binder": "TCGTCGTTTTGTCGTTTTGTCGTT (ssDNA, backbone of assayed form not in material; probably phosphorothioate)", "note": "[ODN 2006 (CpG-B)]", "values": [{"measurement": "binding result", "setting": "RAGE V domain (His)", "value": "binds"}, {"measurement": "binding result", "setting": "[2]", "value": "binds"}]}, {"binder": "B2", "values": [{"measurement": "binding result", "setting": "[3]", "value": "binds"}]}, {"binder": "B3", "values": [{"measurement": "binding result", "setting": "[4]", "value": "binds"}]}, {"binder": "B4", "values": [{"measurement": "binding result", "setting": "RAGE mutant 0", "value": "binds"}]}]}
